Experimental findings from paper PMC4678855 (Nucleic Acids Research, 2015) are described below.

Series [1] concerns the target B. subtilis β-clamp, cysteine-modified variant (residues 1–380 including the added Ser379–Cys380 dipeptide) (B. subtilis) (UniProt P05649). As to the kind of experiment: SAXS.
The series “SAXS” concerns the molecule itself. As to the kind of experiment: SAXS.

B1: B. subtilis MutL C-terminal domain, inactive cysteine-modified variant (residues 433–627; E485C, C531S, C573S, C604S) (domain or fragment, UniProt P49850 433-627, looked up)
chain: SDRVPIMYPIGQMHGTYILAQNENGLYIIDQHAAQERIKYEYFREKVGEVEPCVQEMIVPLTFHYSTNEALIIEQHKQELESVGVFLESFGSNSYIVRSHPAWFPKGEEAELIEEIIQQVLDSKNIDIKKLREEAAIMMSSKGSIKANRHLRNDEIKALLDDLRSTSDPFTSPHGRPIIIHHSTYEMEKMFKRVM
Broadly, the stoichiometry N is the number of molecules, sites or subunits per partner or assembly. Consider B1, for which the stoichiometry N was 1 in series [1] and 2 in “SAXS”.
